Experimental data: PMC7261170 (Nucleic Acids Research, 2020)

T1: CBP-CWC22-S (residues 100-665) (human, UniProt Q9HCG8 100-665)
T1 sequence (looked up): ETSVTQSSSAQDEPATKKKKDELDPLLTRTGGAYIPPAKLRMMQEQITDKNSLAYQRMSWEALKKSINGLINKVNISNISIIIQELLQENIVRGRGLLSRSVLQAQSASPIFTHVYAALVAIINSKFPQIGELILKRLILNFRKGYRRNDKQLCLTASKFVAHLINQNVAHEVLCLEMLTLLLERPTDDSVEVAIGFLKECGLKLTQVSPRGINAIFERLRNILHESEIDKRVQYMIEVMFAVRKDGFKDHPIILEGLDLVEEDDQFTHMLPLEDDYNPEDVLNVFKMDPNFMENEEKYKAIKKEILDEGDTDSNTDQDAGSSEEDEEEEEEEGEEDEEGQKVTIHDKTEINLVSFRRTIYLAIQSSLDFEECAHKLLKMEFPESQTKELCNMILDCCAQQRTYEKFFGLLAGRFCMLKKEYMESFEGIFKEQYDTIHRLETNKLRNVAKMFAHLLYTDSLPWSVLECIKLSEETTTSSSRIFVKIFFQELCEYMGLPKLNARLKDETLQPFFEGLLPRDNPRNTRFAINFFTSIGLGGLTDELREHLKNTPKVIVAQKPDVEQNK

B1: PTS-CWC27 (1-472) (natural protein, human, UniProt Q6UX04 1-472, looked up)
chain: MSNIYIQEPPTNGKVLLKTTAGDIDIELWSKEAPKACRNFIQLCLEAYYDNTIFHRVVPGFIVQGGDPTGTGSGGESIYGAPFKDEFHSRLRFNRRGLVAMANAGSHDNGSQFFFTLGRADELNNKHTIFGKVTGDTVYNMLRLSEVDIDDDERPHNPHKIKSCEVLFNPFDDIIPREIKRLKKEKPEEEVKKLKPKGTKNFSLLSFGEEAEEEEEEVNRVSQSMKGKSKSSHDLLKDDPHLSSVPVVESEKGDAPDLVDDGEDESAEHDEYIDGDEKNLMRERIAKKLKKDTSANVKSAGEGEVEKKSVSRSEELRKEARQLKRELLAAKQKKVENAAKQAEKRSEEEEAPPDGAVAEYRREKQKYEALRKQQSKKGTSREDQTLALLNQFKSKLTQAIAETPENDIPETEVEDDEGWMSHVLQFEDKSRKVKDASMQDSDTFEIYDPRNPVNKRRREESKKLMREKKERR
B2: CWC27-C (354-472) (domain or fragment, human, UniProt Q6UX04 354-472, looked up)
chain: DGAVAEYRREKQKYEALRKQQSKKGTSREDQTLALLNQFKSKLTQAIAETPENDIPETEVEDDEGWMSHVLQFEDKSRKVKDASMQDSDTFEIYDPRNPVNKRRREESKKLMREKKERR

Target: T1, CBP-CWC22-S (residues 100-665)
Assay: pull-down

Binder | binding result
B1 | binds
B2 | binds
